Data on 83 variants can be found in the RNAGym collection of RNA variant scans (doi:10.1093/molbev/msab373).

Sequences and labels used below:
B1: Azoarcus group I ribozyme (parent)
chain: GUGCCUUGCGCCGGGAAACCACGCAAGGGAUGGUGUCAAAUUCGGCGAAACCUAAGCGCCCGCCCGGGCGUAUGGCAACGCCGAGCCAAGCUUCGGCGCCUGCGCCGAUGAAGGUGUAGAGACUAGACGGCACCCACCUAAGGCAAACGCUAUGGUGAAGGCAUAGUCCAGGGAGUGGCGAAAGUCACACAAACCGG

The variants in this series derive from B1. In words: reverse-splicing fitness (ratio to wild type); higher = more active; in vitro selection; Mg2+ level not given. The gist of the method: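 An in vitro group I ribozyme library with randomized positions was T7-transcribed and gel-purified. In triplicate, 10 pmol RNA in EPPS pH 7.5 was reacted with 50 pmoles of a 30-nt RNA substrate for 1 h at 37 °C across several added MgCl2 levels (1–48 mM), then stopped with EDTA. Products were reverse transcribed from a substrate-complementary primer, PCR-amplified and sequenced (HiSeq 4000). Fitness is a variant's read proportion after selection over that before, normalised to wild type.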
As to C82A A111C A120G C150U U176C, the reverse-splicing fitness stood at 0.02.
The value for C82A A111C A120G C150U U176A was 0.0116; that for C82A A111C A120G C150U U176G was 0.00673.
Under C82A A111C A120U A145G C169G stands 0.00415.
For the variant C82A A111C A120U A145G C169A, the reverse-splicing fitness is 0.00372.
With C82A A111C A120U A145G C169U, the reverse-splicing fitness turned out to be 0.00493.
Regarding C82A A111C A120U A145G, the reverse-splicing fitness turned out to be 0.023.
As for C82A A111C A120U A145C, the reverse-splicing fitness came out at 0.0196.
Under C82A A111C A120U A145U stands 0.0205.
Take C82A A111C A120G U176A: the reverse-splicing fitness is 0.0144.
Consider C82A A111C A120G U176G, for which the reverse-splicing fitness stood at 0.00584.
Turning to C82A A111C A120G U176C, the reverse-splicing fitness came out at 0.0255.
Regarding C82A A111C A120G C150G C169G U176G, the reverse-splicing fitness stood at 0.00538.
With C82A A111C A120G C150G C169G U176C, the reverse-splicing fitness worked out at 0.00493.
As for C82A A111C A120G C150G C169G U176A, the reverse-splicing fitness turned out to be 0.00664.
Under C82A A111C A120U A145U C150A C169U U176A stands 0.00378; under C82A A111C A120U A145U C150A C169U U176C, 0.00301.
Under C82A A111C A120U A145U C150A C169U U176G stands 0.00282; under C82A A111C A120G A145U C169A U176C, 0.0104.
Regarding C82A A111C A120G A145U C169A U176G, the reverse-splicing fitness turned out to be 0.00466.
Consider C82A A111C A120G A145U C169A U176A, for which the reverse-splicing fitness was 0.00852.
The value for C82A A111C A120U A145G C150G C169A U176C was 0.0094; that for C82A A111C A120U A145G C150G C169A U176A was 0.0122.
C82A A111C A120U A145G C150G C169A U176G: the reverse-splicing fitness is 0.00541.
The value for C82A A111C A120G A145U C150A C169G was 0.00777; that for C82A A111C A120G A145U C150A C169A was 0.00893.
As for C82A A111C A120G A145U C150A C169U, the reverse-splicing fitness is 0.00736.
In the case of C82A A111C A120U A145C C169A, the reverse-splicing fitness was 0.00286.
With C82A A111C A120U A145C C169U, the reverse-splicing fitness stood at 0.00399.
Under C82A A111C A120U A145C C169G stands 0.00295; under C82A A111C A120U A145C C150A C169U U176G, 0.00263; under C82A A111C A120U A145C C150A C169U U176A, 0.0036.
Regarding C82A A111C A120U A145C C150A C169U U176C, the reverse-splicing fitness was found to be 0.00283.
With C82A A111C A120U A145U C150G C169U U176C, the reverse-splicing fitness stood at 0.00305.
Regarding C82A A111C A120U A145U C150G C169U U176G, the reverse-splicing fitness came out at 0.0029.
As to C82A A111C A120U A145U C150G C169U U176A, the reverse-splicing fitness amounted to 0.0031.
For C82A A111C A120U A145U C150A C169U, the reverse-splicing fitness stood at 0.00332.
C82A A111C A120U A145U C150A C169A: the reverse-splicing fitness stood at 0.00298.
The value for C82A A111C A120U A145U C150A C169G was 0.00349; that for C82A A111C A120U A145U C150U U176C was 0.00936.
As for C82A A111C A120U A145U C150U U176A, the reverse-splicing fitness turned out to be 0.00713.
The value for C82A A111C A120U A145U C150U U176G was 0.00353.
C82A A111C A120U A145U C150G C169A U176G: the reverse-splicing fitness was found to be 0.00338.
The value for C82A A111C A120U A145U C150G C169A U176A was 0.00379.
The value for C82A A111C A120U A145U C150G C169A U176C was 0.00377; that for C82A A111C A120U A145G C150A C169G U176G was 0.00261.
Under C82A A111C A120U A145G C150A C169G U176C stands 0.00514; under C82A A111C A120U A145G C150A C169G U176A, 0.00687; under C82A A111C A120G A145G C150U U176A, 0.00883.
Consider C82A A111C A120G A145G C150U U176C, for which the reverse-splicing fitness came to 0.0186.
The value for C82A A111C A120G A145G C150U U176G was 0.00706; that for C82A A111C A120U A145C C150A was 0.00399.
Under C82A A111C A120U A145C C150U stands 0.00922.
With C82A A111C A120U A145C C150G, the reverse-splicing fitness was determined as 0.00708.
Under C82A A111C A120U A145G C169A U176G stands 0.00219.
The value for C82A A111C A120U A145G C169A U176C was 0.00466; that for C82A A111C A120U A145G C169A U176A was 0.00438; that for C82A A111C A120U A145U C150G C169G was 0.00401.
For the variant C82A A111C A120U A145U C150G C169U, the reverse-splicing fitness came to 0.00325.
Regarding C82A A111C A120U A145U C150G C169A, the reverse-splicing fitness came out at 0.00497.
Regarding C82A A111C A120U A145G C150G C169G, the reverse-splicing fitness came to 0.00663.
As to C82A A111C A120U A145G C150G C169U, the reverse-splicing fitness was 0.00759.
For the variant C82A A111C A120U A145G C150G C169A, the reverse-splicing fitness amounted to 0.00782.
Take C82A A111C A120U A145U C150A U176A: the reverse-splicing fitness was 0.00477.
Under C82A A111C A120U A145U C150A U176C stands 0.0062; under C82A A111C A120U A145U C150A U176G, 0.00301; under C82A A111C A120G A145U C150G, 0.00701.
The value for C82A A111C A120G A145U C150U was 0.0124; that for C82A A111C A120G A145U C150A was 0.00771.
The value for C82A A111C A120G A145U U176C was 0.0197; that for C82A A111C A120G A145U U176G was 0.00466.
In the case of C82A A111C A120G A145U U176A, the reverse-splicing fitness worked out at 0.0134.
Under C82A A111C A120U A145C C150G C169G stands 0.00355; under C82A A111C A120U A145C C150G C169A, 0.00359.
The value for C82A A111C A120U A145C C150G C169U was 0.005; that for C82A A111C A120G A145U C150U C169A was 0.00903.
The value for C82A A111C A120G A145U C150U C169U was 0.00924; that for C82A A111C A120G A145U C150U C169G was 0.00909.
On to C82A A111C A120G A145G C150U C169U, for which the reverse-splicing fitness stood at 0.00986.
In the case of C82A A111C A120G C150G U176C, the reverse-splicing fitness came out at 0.0155.
On to C82A A111C A120G C150G U176G, for which the reverse-splicing fitness worked out at 0.00292.
Consider C82A A111C A120G C150G U176A, for which the reverse-splicing fitness is 0.00868.
Under C82A A111C A120G A145U C169U U176G stands 0.00449.
